US20210171970A1 (CURATORS OF THE UNIVERSITY OF MISSOURI, published 2021)
Blank lines part the entries; values can stand above or below the binder they belong to.

How the values were obtained:
[1] = target: heteromeric acetyl-coenzyme A carboxylase (hetACCase) of Arabidopsis thaliana, in silique or leaf extracts (Arabidopsis thaliana) (UniProt O04983); experiment: inhibition of ACCase activity in 20-day-old A. thaliana leaf extracts with increasing recombinant BADC1, polynomial fit
[2] = target: alpha-carboxyltransferase (α-CT) subunit of hetACCase, AT2G38040, Arabidopsis thaliana (Arabidopsis thaliana) (UniProt Q9LD43); experiment: co-IP from A. thaliana chloroplast lysate with anti-α-CT polyclonal antibody, LC-MS/MS
[3] = target: T1, beta-carboxyltransferase (β-CT) subunit of hetACCase, ATCG00500, Arabidopsis thaliana (Arabidopsis thaliana, UniProt P56765 1-488); experiment: co-IP from A. thaliana chloroplast lysate with anti-BCCP2 polyclonal antibody, LC-MS/MS
T1 construct: Native protein in chloroplast lysate
T1 sequence (looked up): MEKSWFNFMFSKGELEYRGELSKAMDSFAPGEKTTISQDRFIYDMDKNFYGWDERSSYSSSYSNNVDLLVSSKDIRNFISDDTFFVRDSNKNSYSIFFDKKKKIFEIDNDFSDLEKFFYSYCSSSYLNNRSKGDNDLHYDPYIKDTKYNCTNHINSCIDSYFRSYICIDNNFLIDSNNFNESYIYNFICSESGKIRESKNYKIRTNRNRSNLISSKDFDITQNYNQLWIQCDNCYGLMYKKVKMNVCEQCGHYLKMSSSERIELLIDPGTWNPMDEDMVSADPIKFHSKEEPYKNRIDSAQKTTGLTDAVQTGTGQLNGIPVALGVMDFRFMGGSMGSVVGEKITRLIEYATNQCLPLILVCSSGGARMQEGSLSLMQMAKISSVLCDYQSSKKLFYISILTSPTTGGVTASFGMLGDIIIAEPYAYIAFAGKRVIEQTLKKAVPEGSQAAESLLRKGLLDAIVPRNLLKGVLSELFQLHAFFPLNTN
Procedure: For co-innmunoprecipitation of hetACCase from Arabidopsis seedlings, crude chloroplasts were isolated from approximately 10 g 14-d-old A. thaliana seedlings after 1 h light exposure. Fresh leaves were homogenized in ice-cold grinding buffer (50 mM HEPES-KOH pH 8.0, 330 mM sorbitol, 1.5 mM MnCl₂, 2 mM MgCl₂, 2 mM EDTA, 0.1% (w/v) BSA) using a Waring blender. Homogenate was filtered through two layers of Miracloth and centrifuged at 2,600 g at 4° C. for 20 min. Chloroplasts were lysed for 30 min in ice-cold lysis buffer (50 mM HEPES-KOH pH 8.0, 10% (v/v) glycerol, 0.5% (v/v) Triton X-100). Lysates were homogenized ten times in a Dounce homogenizer on ice and then centrifuged at 30 k g for 20 min at 4° C. Then, 1 mL of the 30 k g supernatant was added to 25 μL Protein A-Sepharose beads (Sigma Aldrich) either uncoated (control) or coated with antibody specific for α-CT, BCCP, BADC1, or BADC2. Co-immunoprecipations (co-IP) were carried out at 4° C. for 3 h with gentle mixing. The heads were washed twice with 1 mL ice-cold lysis buffer and precipitated protein was eluted by adding 30 μL 6×SDS sample buffer (350 mM Tris-HCl, pH 6.8, 350 mM SDS, 30% (v/v) glycerol, 100 mM dithiothreitol, 2.5 mM bromophenol blue) and heating at 65° C. for 10 min. Eluted proteins were resolved on 10% SDS-PAGE gels for western and mass spectrometry analysis. […]

[4] = target: the molecule itself; experiment: intact mass analysis and non-reducing SDS-PAGE of purified recombinant protein (only a monomer band)

Chain of alpha-carboxyltransferase (α-CT) subunit of hetACCase, AT2G38040, Arabidopsis thaliana (Arabidopsis thaliana) (Q9LD43 55-769): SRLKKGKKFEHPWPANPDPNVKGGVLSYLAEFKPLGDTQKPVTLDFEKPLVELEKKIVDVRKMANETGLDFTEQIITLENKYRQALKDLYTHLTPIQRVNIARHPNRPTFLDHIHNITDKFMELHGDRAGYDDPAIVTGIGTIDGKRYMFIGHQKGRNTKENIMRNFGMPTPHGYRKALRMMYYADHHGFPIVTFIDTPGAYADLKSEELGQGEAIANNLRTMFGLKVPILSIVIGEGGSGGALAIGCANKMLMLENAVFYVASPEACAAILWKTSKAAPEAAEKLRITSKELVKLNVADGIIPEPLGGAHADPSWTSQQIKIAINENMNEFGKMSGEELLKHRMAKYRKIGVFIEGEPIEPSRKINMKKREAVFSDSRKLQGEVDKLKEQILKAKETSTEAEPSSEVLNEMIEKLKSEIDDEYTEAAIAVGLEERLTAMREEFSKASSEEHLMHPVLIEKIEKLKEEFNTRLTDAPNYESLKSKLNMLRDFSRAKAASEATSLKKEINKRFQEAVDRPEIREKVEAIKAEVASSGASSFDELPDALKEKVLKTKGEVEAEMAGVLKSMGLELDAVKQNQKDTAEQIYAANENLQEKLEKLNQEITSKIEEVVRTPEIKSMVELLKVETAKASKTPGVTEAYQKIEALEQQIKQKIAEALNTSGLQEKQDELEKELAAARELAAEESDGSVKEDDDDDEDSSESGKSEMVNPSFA

Ki [1]: 4.3 µM
B1: BADC1 (biotin/lipoyl attachment domain-containing protein, AT3G56130), Arabidopsis thaliana (protein)
chain: AKAAKSSTTTISDGSSDASVSDGKKTVRRITFPKEVEALVHEMCDETEVAVLQLKVGDFEMNLKRKIGAATNPIPVADISPTVAPPIPSEPMNKSASSAPSPSQAKPSSEKVSPFKNTSYGKPAKLAALEASGSTNYVLVTSPAVGKFQRSRTVKGKKQSPSCKEGDAIKEGQVIGYLHQLGTELPVTSDVAGEVLKLLSDDGDSVGYGDPLVAVLPSFHDINIQ
replicates of the co-IP in which the protein was present (of seven) [2]: 1 replicates

binding result [3]: no binding
B2: BCCP2 (biotin carboxyl carrier protein 2 subunit of hetACCase, AT5G15530), Arabidopsis thaliana (other, UniProt Q9LLC1 88-255, looked up)
chain: EFMAKVSGLLKLVDSKDIVELELKQLDCEIVIRKKEALQQAVPPAPVYHSMPPVMADFSMPPAQPVALPPSPTPTSTPATAKPTSAPSSSHPPLKSPMAGTFYRSPGPGEPPFVKVGDKVQKGQIVCIIEAMKLMNEIEAEKSGTIMELLAEDGKPVSVDTPLFVIAP
modifications: biotinylated (residue not given)
notes: Native protein in chloroplast lysate for the co-IPs; Recombinant and two-hybrid constructs lack the TargetP-predicted transit peptide; also called AtBCCP2; NP_568316.1

B3: BADC2 (Single hybrid motif protein, AT1G52670), Arabidopsis thaliana (other)
chain: TTLRSVKAIQLSTVPPAETEAIADVKDSDETKSTVVNTHLMPKSSEVEALISEITDSSSIAEFELKLGGFRLYVARKLTDESSPPPQQIQPVVAASATPEGVHTNGSATSSSLAITKTSSSSADRPQTLANKAADQGLVILQSPTVGYFRRSKTIKGKRTPTICKEKDIVKEGQVLCYIEQLGGQIPVESDVSGEIVKILREDGEPVGYNDALITVLPSFPGIKKLQ
notes: Native protein in chloroplast lysate for the co-IPs; Recombinant and two-hybrid constructs lack the TargetP-predicted transit peptide; His-tagged or untagged in co-expression; also called AtBADC2; NP_564612.1
replicates of the co-IP in which the protein was present (of seven) [2]: 2 replicates | binding result [4]: no binding
